For two substances, EC50, αvβ3, IC50 (nM), inhibition of CHO-αvβ3 cell adhesion to fibrinogen and IC50 results are on record in US20250051404A1.

One test concerns the target human VEGF165 (human) (UniProt P15692). Kind of test: direct binding ELISA, VEGF165 coated, anti-human IgG Fc-HRP detection. (ELISA stands for enzyme-linked immunosorbent assay.)
In test [1] the target is integrin αvβ3 expressed on CHO cells (CHO-αvβ3). Briefly: cell-based or functional assay.

Sequence of soluble integrin αvβ3 (P06756 31-992, chain 1 of 2): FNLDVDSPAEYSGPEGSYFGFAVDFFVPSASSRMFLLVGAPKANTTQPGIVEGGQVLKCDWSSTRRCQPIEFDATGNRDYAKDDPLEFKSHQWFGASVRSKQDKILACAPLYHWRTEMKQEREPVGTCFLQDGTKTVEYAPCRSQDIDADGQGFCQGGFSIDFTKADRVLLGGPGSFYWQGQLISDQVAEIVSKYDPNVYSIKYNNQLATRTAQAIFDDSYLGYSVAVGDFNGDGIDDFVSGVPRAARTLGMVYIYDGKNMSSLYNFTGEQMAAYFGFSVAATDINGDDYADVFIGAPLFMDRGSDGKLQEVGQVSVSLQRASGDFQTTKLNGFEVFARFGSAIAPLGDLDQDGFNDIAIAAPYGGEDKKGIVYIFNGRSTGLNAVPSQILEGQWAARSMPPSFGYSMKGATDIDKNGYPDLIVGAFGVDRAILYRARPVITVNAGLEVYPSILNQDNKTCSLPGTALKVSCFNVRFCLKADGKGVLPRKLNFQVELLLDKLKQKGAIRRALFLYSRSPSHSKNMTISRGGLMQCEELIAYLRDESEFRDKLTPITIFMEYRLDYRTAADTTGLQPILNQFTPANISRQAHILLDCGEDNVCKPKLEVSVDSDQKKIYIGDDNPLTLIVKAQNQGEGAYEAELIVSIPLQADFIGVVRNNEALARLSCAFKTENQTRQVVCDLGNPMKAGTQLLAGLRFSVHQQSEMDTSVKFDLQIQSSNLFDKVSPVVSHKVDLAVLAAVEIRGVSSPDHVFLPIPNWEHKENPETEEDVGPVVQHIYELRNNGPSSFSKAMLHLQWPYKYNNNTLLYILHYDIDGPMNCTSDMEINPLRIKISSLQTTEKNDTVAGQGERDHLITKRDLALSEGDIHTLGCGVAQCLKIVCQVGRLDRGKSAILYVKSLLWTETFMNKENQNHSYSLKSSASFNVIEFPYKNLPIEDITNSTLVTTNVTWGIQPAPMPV
Sequence of soluble integrin αvβ3 (P05106 27-718, chain 2 of 2, further chain): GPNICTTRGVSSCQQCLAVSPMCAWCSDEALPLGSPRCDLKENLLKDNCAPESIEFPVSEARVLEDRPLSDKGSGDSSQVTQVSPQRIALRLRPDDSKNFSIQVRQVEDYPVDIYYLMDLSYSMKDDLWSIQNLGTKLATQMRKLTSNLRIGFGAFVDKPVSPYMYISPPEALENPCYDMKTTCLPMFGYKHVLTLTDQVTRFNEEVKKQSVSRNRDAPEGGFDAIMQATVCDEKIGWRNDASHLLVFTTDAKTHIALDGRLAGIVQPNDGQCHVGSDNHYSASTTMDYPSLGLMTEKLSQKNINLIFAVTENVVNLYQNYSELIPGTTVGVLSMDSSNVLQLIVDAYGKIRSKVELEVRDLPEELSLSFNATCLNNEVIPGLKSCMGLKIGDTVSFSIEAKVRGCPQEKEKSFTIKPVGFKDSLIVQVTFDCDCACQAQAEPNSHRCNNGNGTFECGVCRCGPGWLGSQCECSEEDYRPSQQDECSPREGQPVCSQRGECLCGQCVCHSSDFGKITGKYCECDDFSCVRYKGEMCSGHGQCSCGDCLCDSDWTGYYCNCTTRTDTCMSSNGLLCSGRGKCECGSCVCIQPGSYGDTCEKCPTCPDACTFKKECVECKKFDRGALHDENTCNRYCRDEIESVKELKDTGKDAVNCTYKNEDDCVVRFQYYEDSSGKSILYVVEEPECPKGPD

One may read the EC50 as the concentration giving half of the maximal effect. A high value points to lower potency in that assay. “Positive Control 2 (aflibercept) (Fc fusion)” showed an EC50 in the test with human VEGF165 (human) of 0.088 to 0.195 nM.
What is called IC50 is the midpoint of a concentration-inhibition curve. High values mean a need for much substance, low ones inhibition by little substance. Regarding “Positive Control 3 (wild type Rho, SEQ ID NO: 1) (from UniProt P30403 408-475) (ligand)”, the αvβ3, IC50 (nM), inhibition of CHO-αvβ3 cell adhesion to fibrinogen in test [1] stood at 24.7 nM. This substance also gave a 50% inhibitory concentration (IC50) with soluble integrin αvβ3 of 2.6 to 3.2 nM.
